B1: ceruloplasmin: comparison protein in transcytosis experiments (protein, UniProt P00450 20-1065, looked up)
Ceruloplasmin: KEKHYYIGIIETTWDYASDHGEKKLISVDTEHSNIYLQNGPDRIGRLYKKALYLQYTDETFRTTIEKPVWLGFLGPIIKAETGDKVYVHLKNLASRPYTFHSHGITYYKEHEGAIYPDNTTDFQRADDKVYPGEQYTYMLLATEEQSPGEGDGNCVTRIYHSHIDAPKDIASGLIGPLIICKKDSLDKEKEKHIDREFVVMFSVVDENFSWYLEDNIKTYCSEPEKVDKDNEDFQESNRMYSVNGYTFGSLPGLSMCAEDRVKWYLFGMGNEVDVHAAFFHGQALTNKNYRIDTINLFPATLFDAYMVAQNPGEWMLSCQNLNHLKAGLQAFFQVQECNKSSSKDNIRGKHVRHYYIAAEEIIWNYAPSGIDIFTKENLTAPGSDSAVFFEQGTTRIGGSYKKLVYREYTDASFTNRKERGPEEEHLGILGPVIWAEVGDTIRVTFHNKGAYPLSIEPIGVRFNKNNEGTYYSPNYNPQSRSVPPSASHVAPTETFTYEWTVPKEVGPTNADPVCLAKMYYSAVEPTKDIFTGLIGPMKICKKGSLHANGRQKDVDKEFYLFPTVFDENESLLLEDNIRMFTTAPDQVDKEDEDFQESNKMHSMNGFMYGNQPGLTMCKGDSVVWYLFSAGNEADVHGIYFSGNTYLWRGERRDTANLFPQTSLTLHMWPDTEGTFNVECLTTDHYTGGMKQKYTVNQCRRQSEDSTFYLGERTYYIAAVEVEWDYSPQREWEKELHHLQEQNVSNAFLDKGEFYIGSKYKKVVYRQYTDSTFRVPVERKAEEEHLGILGPQLHADVGDKVKIIFKNMATRPYSIHAHGVQTESSTVTPTLPGETLTYVWKIPERSGAGTEDSACIPWAYYSTVDQVKDLYSGLIGPLIVCRRPYLKVFNPRRKLEFALLFLVFDENESWYLDDNIKTYSDHPEKVNKDDEEFIESNKMHAINGRMFGNLQGLTMHVGDEVNWYLMGMGNEIDLHTVHFHGHSFQYKHRGVYSSDVFDIFPGTYQTLEMFPRTPGIWLLHCHVTDHIHAGMETTYTVLQNEDTKSG
B2: Melanotransferrin (p97): comparison protein, p97 obtained from Synapse Technologies (protein, UniProt P08582 20-709, looked up)
Melanotransferrin: GMEVRWCATSDPEQHKCGNMSEAFREAGIQPSLLCVRGTSADHCVQLIAAQEADAITLDGGAIYEAGKEHGLKPVVGEVYDQEVGTSYYAVAVVRRSSHVTIDTLKGVKSCHTGINRTVGWNVPVGYLVESGRLSVMGCDVLKAVSDYFGGSCVPGAGETSYSESLCRLCRGDSSGEGVCDKSPLERYYDYSGAFRCLAEGAGDVAFVKHSTVLENTDGKTLPSWGQALLSQDFELLCRDGSRADVTEWRQCHLARVPAHAVVVRADTDGGLIFRLLNEGQRLFSHEGSSFQMFSSEAYGQKDLLFKDSTSELVPIATQTYEAWLGHEYLHAMKGLLCDPNRLPPYLRWCVLSTPEIQKCGDMAVAFRRQRLKPEIQCVSAKSPQHCMERIQAEQVDAVTLSGEDIYTAGKTYGLVPAAGEHYAPEDSSNSYYVVAVVRRDSSHAFTLDELRGKRSCHAGFGSPAGWDVPVGALIQRGFIRPKDCDVLTAVSEFFNASCVPVNNPKNYPSSLCALCVGDEQGRNKCVGNSQERYYGYRGAFRCLVENAGDVAFVRHTTVFDNTNGHNSEPWAAELRSEDYELLCPNGARAEVSQFAACNLAQIPPHAVMVRPDTNIFTVYGLLDKAQDLFGDDHNKNGFKMFDSSNYHGQDLLFKDATVRAVPVGEKTTYRGWLGLDYVAALEGMSSQQC
B3: Transferrin: comparison protein, bovine holo-transferrin (protein, UniProt Q29443 20-704, looked up)
Serotransferrin: DPERTVRWCTISTHEANKCASFRENVLRILESGPFVSCVKKTSHMDCIKAISNNEADAVTLDGGLVYEAGLKPNNLKPVVAEFHGTKDNPQTHYYAVAVVKKDTDFKLNELRGKKSCHTGLGRSAGWNIPMAKLYKELPDPQESIQRAAANFFSASCVPCADQSSFPKLCQLCAGKGTDKCACSNHEPYFGYSGAFKCLMEGAGDVAFVKHSTVFDNLPNPEDRKNYELLCGDNTRKSVDDYQECYLAMVPSHAVVARTVGGKEDVIWELLNHAQEHFGKDKPDNFQLFQSPHGKDLLFKDSADGFLKIPSKMDFELYLGYEYVTALQNLRESKPPDSSKDECMVKWCAIGHQERTKCDRWSGFSGGAIECETAENTEECIAKIMKGEADAMSLDGGYLYIAGKCGLVPVLAENYKTEGESCKNTPEKGYLAVAVVKTSDANINWNNLKDKKSCHTAVDRTAGWNIPMGLLYSKINNCKFDEFFSAGCAPGSPRNSSLCALCIGSEKGTGKECVPNSNERYYGYTGAFRCLVEKGDVAFVKDQTVIQNTDGNNNEAWAKNLKKENFEVLCKDGTRKPVTDAENCHLARGPNHAVVSRKDKATCVEKILNKQQDDFGKSVTDCTSNFCLFQSNSKDLLFRDDTKCLASIAKKTYDSYLGDDYVRAMTNLRQCSTSKLLEACTFHKP
modifications: holo (iron-loaded)
B4: receptor-associated protein (RAP): LRP antagonist, receptor-associated protein (protein, UniProt P30533 35-357, looked up)
Alpha-2-macroglobulin …: YSREKNQPKPSPKRESGEEFRMEKLNQLWEKAQRLHLPPVRLAELHADLKIQERDELAWKKLKLDGLDEDGEKEARLIRNLNVILAKYGLDGKKDARQVTSNSLSGTQEDGLDDPRLEKLWHKAKTSGKFSGEELDKLWREFLHHKEKVHEYNVLLETLSRTEEIHENVISPSDLSDIKGSVLHSRHTELKEKLRSINQGLDRLRRVSHQGYSTEAEFEEPRVIDLWDLAQSANLTDKELEAFREELKHFEAKIEKHNHYQKQLEIAHEKLRHAESVGDGERVSRSREKHALLEGRTKELGYTVKKHLQDLSGRISRARHNEL
B5: Lactoferrin: comparison protein in transcytosis experiment (protein, UniProt P02788 20-710, looked up)
Lactotransferrin: GRRRSVQWCAVSQPEATKCFQWQRNMRKVRGPPVSCIKRDSPIQCIQAIAENRADAVTLDGGFIYEAGLAPYKLRPVAAEVYGTERQPRTHYYAVAVVKKGGSFQLNELQGLKSCHTGLRRTAGWNVPIGTLRPFLNWTGPPEPIEAAVARFFSASCVPGADKGQFPNLCRLCAGTGENKCAFSSQEPYFSYSGAFKCLRDGAGDVAFIRESTVFEDLSDEAERDEYELLCPDNTRKPVDKFKDCHLARVPSHAVVARSVNGKEDAIWNLLRQAQEKFGKDKSPKFQLFGSPSGQKDLLFKDSAIGFSRVPPRIDSGLYLGSGYFTAIQNLRKSEEEVAARRARVVWCAVGEQELRKCNQWSGLSEGSVTCSSASTTEDCIALVLKGEADAMSLDGGYVYTAGKCGLVPVLAENYKSQQSSDPDPNCVDRPVEGYLAVAVVRRSDTSLTWNSVKGKKSCHTAVDRTAGWNIPMGLLFNQTGSCKFDEYFSQSCAPGSDPRSNLCALCIGDEQGENKCVPNSNERYYGYTGAFRCLAENAGDVAFVKDVTVLQNTDGNNNEAWAKDLKLADFALLCLDGKRKPVTEARSCHLAMAPNHAVVSRMDKVERLKQVLLHQQAKFGRNGSDCPDKFCLFQSETKNLLFNDNTECLARLHGKTTYEKYLGPQYVAGITNLKKCSTSPLLEACEFLRK

Assays:
[1] = tested on: bovine brain capillary endothelial cells (BBCECs); assay: Transcytosis of 125I-proteins across BBCEC monolayers (in vitro blood-brain barrier model); details: for Ratios (x-fold), 125I-proteins transcytosis across BBCEC monolayers: 250 nM; for Ratios (x-fold), 125I-proteins transcytosis across BBCEC monolayers / Ratios Aprotinin/Protein: aprotinin transcytosis divided by that of the named protein; for Transcytosis: across in vitro BBB model
Experimental: The model consists of a co-culture of bovine brain capillary endothelial cells and rat glial cells.
The in vitro model of BBB was established by using a co-culture of BBCECs and astrocytes. Prior to cell culture, plate inserts (Millicell-PC 3.0 μM; 30-mm diameter) were coated on the upper side with rat tail collagen. They were then set in six-well microplates containing the astrocytes and BBCECs were plated on the upper side of the filters in 2 mL of co-culture medium. This BBCEC medium was changed three times a week. Under these conditions, differentiated BBCECs formed a confluent monolayer 7 days later. Experiments were performed between 5 and 7 days after confluence was reached. The permeability coefficient for sucrose was measured to verify the endothelial permeability.
Briefly, after removing the meninges, the brain tissue was forced gently through a 82 μm nylon sieve. Astrocytes were plated on six-well microplates at a concentration of 1.2×10^5 cells/mL in 2 mL of optimal culture medium (DMEM) supplemented with 10% heat inactivated fetal bovine serum. The medium was changed twice a week.
Bovine brain capillary endothelial cells (BBCECs) were obtained from Cellial Technologies. The cells were cultured in the presence of DMEM medium supplemented with 10% (v/v) horse serum and 10% heat-inactivated calf serum, 2 mM of glutamine, 50 μg/mL of gentamycin, and 1 ng/mL of basic fibroblast growth factor, added every other day.
One insert covered with BBCECs was set into a six-well microplate with 2 mL of Ringer-Hepes and was pre-incubated for 2 h at 37° C. [^125I]-aprotinin, [^125I]-p97, [^125I]-ceruloplasmin or [^125I]-transferrin (250 nM final concentration) was added to the upper side of the filter covered with cells. At various times, the insert was transferred to another well to avoid a possible reendocytosis of [^125I]-proteins by the abluminal side of the BBCECs. At the end of experiment, [^125I]-proteins were assessed in 500 μL of the lower chamber of well by TCA precipitation.
Aprotinin, p97 and bovine holo-transferrin were iodinated with standard procedures using iodo-beads from Sigma™. Bovine holo-transferrin was diluted in 0.1M phosphate buffer, pH 6.5 (PB). P97 obtained from Synapse Technologies in neutralized citrate at pH 7.0 was dialyzed against this PB. Two iodo-beads were used for each protein. These beads were washed twice with 3 mL of PB on a Whatman™ filter and resuspended in 60 μL of PB. ^125I (1 mCi) from Amersham-Pharmacia biotech was added to the bead suspension for 5 minutes at room temperature. The iodination for each protein was initiated by the addition of 100 μg (80-100 μL).

[2] = tested on: endothelial cell monolayers (in vitro blood-brain barrier model); assay: Permeability coefficient (Pe) of proteins in the in vitro blood-brain barrier model
Experimental: The permeability coefficient (Pe) was calculated as:
At the end of the experiments, amounts of the radiotracers in the basolateral compartment were measured in a liquid scintillation counter. The permeability coefficient (Pe) for sucrose was calculated as previously described (Dehouck, M. P., Jolliet-Riant, P., Brée, F., Fruchart, J. C., Cecchelli, R., Tillement, J. P., J. Neurochem. 58:1790-1797, 1992) using filters coated or non-coated with EC.
The transport of Angio-pep1 from the apical-to-basolateral side of inserts covered with or without endothelial cell monolayers was measured. The results are expressed as the clearance of Angio-pep1 as a function of time. The slopes correspond to the permeability of the peptide through the filter alone (Psf) and to the total permeability of the endothelial cell monolayers (Pst).
The permeability coefficients for Angio-pep1, aprotinin, leptin and transferrin were determined using the in vitro blood-brain barrier model. The permeability coefficient (Pe) was calculated as described above.

Row | Molecule | Ratios (x-fold), 125I-proteins transcytosis across BBCEC monolayers [1] | Transcytosis [1] | Ratios Aprotinin/Protein [1] | Ratios (permeability coefficients) ([2]; Pe of Angio-pep1 divided by Pe of the named protein) | Permeability coefficient (Pe) ([2]; in vitro blood-brain barrier model) | effect on aprotinin transcytosis ([1]; [125I]-aprotinin 250 nM with or without RAP, 37° C., FIG. 14)
1 | B1 | 44.0 x-fold |  |  |  |  | 
2 | B2 | 8.2 x-fold | 0.28 pmol/h/cm^2 | 10 |  |  | 
3 | B3 | 11.6 x-fold | 0.14 pmol/h/cm^2 | 19 | 210 | 0.095 ×10⁻⁶ cm/s | 
4 | B4 |  |  |  |  |  | inhibition
5 | B5 |  | 0.05 pmol/h/cm^2 | 50 |  |  | 
